Laboratory results reported in patent US20160137713A1 (HANALL BIOPHARMA, published 2016).

How the values were obtained:
[1] = target: T1, human FcRn on HEK293 cells (human, UniProt P55899 24-365; P61769 21-119); assay: FACS competition on hFcRn HEK293 cells at pH 6.0; remaining binding of 100 nM Alexa488-labeled hIgG1 (m14) with 500 nM competitor antibody, percent of the tube without competitor
T1 construct: whole, on cells; also called hFcRn
Protocol: In stable HEK293 cells expressing human FcRn, the blocking of the antibody against FcRn was analyzed by FACS. The antibody was diluted in binding buffer (PBS pH 6.0, 10 mM EDTA) at concentrations of 2,000 nM, […] to make 50 μl of dilutions, which were dispensed into tubes. […] Stable HEK293 cells were diluted in binding buffer at a concentration of 2,500,000 cells/ml, and 40 μl of the cell dilution was added to each of the labeled antibody-containing tubes. Thus, a final volume of 100 μl contained 100,000 cells, 100 nM labeled antibody and 1000 nM, 500 nM or 250 nM competitor antibody. The cells were washed once with 150 μl of buffer (pH 6.0), and pellets were obtained therefrom and resuspended in 150 μl of buffer having pH difference. The suspension was transferred into a tube for FACS analysis. The cells were analyzed by FACS using BD FACSDiva™ v6.1.3 software (BD Bioscience). The results of the analysis were expressed as mean fluorescence intensity (MFI).
The MFI of the test group was processed after subtracting the MFI (background signal) measured in cells alone.

[2] = target: T2, soluble human FcRn (human, UniProt P55899 24-297; P61769 21-119); assay: SPR, shFcRn immobilised, pH 7.4
T2 construct: extracellular domain;mature; Non-covalent heterodimer secreted by 293 cells, purified on IgG Sepharose; also called shFcRn; soluble FcRn
Protocol: Measurement of the binding ability of antibody by SPR was performed by immobilizing shFcRn as a ligand onto a Proteon GLC chip (Bio-Rad) and measuring affinity.
The analysis of ligand and analyte was performed using a Proteon GLC chip, and the interaction was analyzed at a pH of 6.0 and a pH of 7.4. Immobilization of the ligand was activated by injecting a 1:1 mixture of 1×EDAC (EDC) and 1× Surfo-NHS for 5 minutes. shFcRn was diluted in 10 mM sodium acetate (pH 4.5) at a concentration of 25 μg/ml and added to the ligand at a flow rate of 30 μl/min for 5 minutes. […] The analyte antibody was allowed to flow on the immobilized chip at a flow rate of 30 μl/min. […] The association time of the analyte antibody was 240 seconds, and the dissociation time was 600 seconds. Regeneration of the chip was performed by injecting 10 mM glycine (pH 2.5) at a flow rate of 100 μl/min for 18 seconds. Based on sensorgrams resulting from six concentrations of the analyte, kinetics analysis was performed using Proteon XPR36 software.

Relative MFI(%) at 500nM [1]: 60.4%
koff [2]: 0.00045 s⁻¹
kon [2]: 500000 M⁻¹ s⁻¹
B1: HL161-11H (antibody, V domains shown)
VH: QMQLVESGGGLVQPGRSLRLSCAASGFTFSSYAMHWVRQAPGKGLEWVAVISYDGSNKYYADSVKGRFTISRDNSKNTLYLQMNSLRSEDTAVYYCSRGSGGRDAFDVWGQGTMITVSS
VL: DIQMTQSPSTLSASVGDRVTITCRASQSISSRLAWYQQKPGKAPKLLIYKASSLETGVPSRFSGSGSGTEFTLTISSLQPDDFATYYCQQTNSFPLTFGGGTKVEIK
notes: Whole human IgG from pNATAB vectors
